# Assay results published in the nanobody polyreactivity screen of Harvey et al. (2022).
# Assay: yeast display, Sf9 membrane polyspecificity reagent, FACS + sequencing; frameworks hold sequencing errors
# In short: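 In a synthetic yeast display library (Saccharomyces cerevisiae BJ5465), nanobody expression was induced with galactose for 36–48 hours. FACS gates were set low and high (top ~1%) using anti-HA fluorescence for expression and streptavidin fluorescence for binding of the Sf9 membrane reagent. Each polyreactivity label is drawn from the gate of origin.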
row,Sequence,polyreactivity (PSR sort gate)
1,QVQLVESGGGLVQAGGSLRLSCAASGSIFFIYAIGWYRQAPGKQRELVATISSGGSTYYADSVKGRFRISRDIAKNTVYLQMNSLKPEDTAVYYCAADGIVQDGLEWEYDYWGQGTQVTVSS,low polyreactivity
2,QVQLVESGGGLVQAGGSLRLSCAASGSIFFLYAMGWYRQAPGKERELVAAISLSTGNTYYADSVKGRFTISRDNAKNTVYLQMNSLKPEDSAVYYCAATYVSISYRYDYWGQGTQVTVSS,high polyreactivity
3,QVQLVESGGGLVQAGGSLRLSCAASGSIFFLYAMGWYRQAPGKERELVAAISVGGGSTYYADSVKGRFTFSRDNAKNTVYLHMNSLKPEDTAVYYCAALSKTRGGYWGQGTQVTVSS,high polyreactivity
4,QVQLVESGGGLVQAGGSLRLSCAASGSIFFNYAMGWYRKAPGKERELVATITSGGSTYYADSVKGRFTISRDNAKNTVYLQMNSLKPEDTAVYYCAVDEYFAFDYWGQGTQVTVSS,low polyreactivity
5,QVQLVESGGGLVQAGGSLRLSCAASGSIFFNYAMGWYRQAPGKERELVAAITRSGGSTYYADSVKGRFTISRDNAKNTVYLQMNSLKPEDTAVYYCAARYPFGSLGRYGYWGQGTQVTVSS,high polyreactivity
6,QVQLVESGGGLVQAGGSLRLSCAASGSIFFPNAMGWYRQAPGKERELVAAIRGGTNTYYADSVKGRFTISRDNAKTTVYLQLNSLKPEDTAVYYCAARRSSHWFTYDYWGQGTQVTVSS,high polyreactivity
7,QVQLVESGGGLVQAGGSLRLSCAASGSIFFPYAMGWYRQAPGKERELVAAISYSGTSRYYADSVKGRFTISRDNAKNTVYLQMNSLKPEDTAVYYCAAYSRYYASYDYWGQGTQVTVSS,high polyreactivity
8,QVQLVESGGGLVQAGGSLRLSCAASGSIFFSNAMGWYRQAPGKERELVAGIRSGGITNYADSVKGRFTISRDNAKNTVYLQMNSLKPEDSAVYYCAKLKDHGRYAYAFDYWGQGTQVTVSS,low polyreactivity
9,QVQLVESGGGLVQAGGSLRLSCAASGSIFFVNDMGWYRQAPGKERELVAAITRDGGTNYADSVKGRFTISRDNAKNTVYLQMNSLKPEDTAVYYCAKESGSVLSLYDYWGQGTQVTVSS,low polyreactivity
10,QVQLVESGGGLVQAGGSLRLSCAASGSIFFVYDMGWYRQAPGKERELVAAITWSGGRTTYADSVKGRFTISRDNAKNTVYLQMNSLKPEDTAVYYCAKAWPDHWYSRYDYWGQGTQVTVSS,low polyreactivity
11,QVQLVESGGGLVQAGGSLRLSCAASGSIFFWYTMGWYRQAPGKERDLVATITGSGSSTTYADSVKGRFTISRDNAKNTVYLQMNSLKPEDTAVYSCAAADIIDHSFPYDYWGQGTQVTVSS,low polyreactivity
12,QVQLVESGGGLVQAGGSLRLSCAASGSIFFWYTRGWYRQEPGKERQLVATITGSGSSTTYADSVKGRFTISRDNAKNSVYLQMNSLKPEDTAVYYCAAADIIDHSFPYDYWGQGTQVTVSS,low polyreactivity
13,QVQLVESGGGLVQAGGSLRLSCAASGSIFFYNAMGWYRQAPGKERELVAAISRGGSTYYADSVKGRFTISRDNAKNTVYLQMNSLKPEDTAVYYCAVQRRRNSNVLFDYWGQGTQVTVSS,high polyreactivity
14,QVQLVESGGGLVQAGGSLRLSCAASGSIFFYNTMGWYRQARGKERELVATINSDDSTYYADSVKGGFTISRDNAKNTVYIQMNSLKPEDTAVYYCNVRVKGGKLVAYDYWGQGTQVTLSS,low polyreactivity
15,QVQLVESGGGLVQAGGSLRLSCAASGSIFFYYAMGWYRQAPGKERELVAAINSDGSTNYADSVKGRFTISRDNAKNTVYLQMNSLKPEDTAVYYCAAYDEYYGYDYWGQGTQVTVSS,low polyreactivity
16,QVQLVESGGGLVQAGGSLRLSCAASGSIFFYYAMGWYRQAPGKERELVAAISYSDGTTYYADSVKGRFTISRDNAKNTVYLQMNSLKPEDTAVYYCAADLWVGLVSLWDGYVEYDYWGQGTQVTVSS,low polyreactivity

row,Sequence,polyreactivity (PSR sort gate)
1,QVQLVESGGGLVQAGGSLRLSCAASGSIFGANTMGWYRQAPWKERELVAGITSRARTYYADSVKGRFTISRDNAKNTVYLQMNSLKPEDTAVYYCAAKYAWRRYGYWGQGTQVTVSS,high polyreactivity
2,QVQLVESGGGLVQAGGSLRLSCAASGSIFGAYAMGWYRQAPGKERELVAAINYGGATTYYADSVKGRFTISRDNAKNTVYLQMNSLKPEDTAVYYCAADYLYAYGDVAVVYGWYAYYYWGQGTQVTVSS,low polyreactivity
3,QVQLVESGGGLVQAGGSLRLSCAASGSIFGAYTMRWYRQAPGKERELVAAITGGGITNYADSVKGRFTISRDNAKNTVYLQMNSLKPEDTAVYYCNAGYPPQTVVVGYDYWGQGTQVTVSS,low polyreactivity
4,QVQLVESGGGLVQAGGSLRLSCAASGSIFGDNAMGWYRQAPGKERELVAAINYNGGRTYYADSVKGRFTISRDNAKNTVYLQMNSLKPEDTAVYYCAKDNYQAPVQQYPFDYWGQGTQVTVSS,low polyreactivity
5,QVQLVESGGGLVQAGGSLRLSCAASGSIFGDNAMGWYRQAPGKERELVAAISIVGSTSYADSVKGRFTISRDNAKNTVYLQMNSLKPEDTAVYDCAAEIVRSDTGFDYWGQGTQVTVSS,low polyreactivity
6,QVQLVESGGGLVQAGGSLRLSCAASGSIFGDNAMGWYRQAPRKERELVAVISSSGSTYYADSVKGRFTISRDNAKNTVFLQMNSLKPEDSAVYYCNAYQFDWYEEYYYWGQGTQVTVSS,low polyreactivity
7,QVQLVESGGGLVQAGGSLRLSCAASGSIFGDYAMGWYRQAPGKEREFVAGITRRGGRTYYADSVKGRFTISRDNAKNTVYLQMNSLKPEDTAVYYCNAVYSSSLRSKYDYWGQGTQVTVSS,high polyreactivity
8,QVQLVESGGGLVQAGGSLRLSCAASGSIFGDYAMGWYRQAPGKERELVATITWIGGSTYYADSVKGRFTISRDNAKNTVYLQMNSLKPEDTAVYYCAATKYVDVKYYYWGQGTQVTVSS,low polyreactivity
9,QVQLVESGGGLVQAGGSLRLSCAASGSIFGDYAMGWYRQAPVKERELVATITWIGGSTYYADSVKGRFTISRDNAKNTVYLQMNSLTPEDTAVYYCAATKYVDVKYYYWGQGTQVTVSS,low polyreactivity
10,QVQLVESGGGLVQAGGSLRLSCAASGSIFGDYVMGWYRQAPGKERELVAAINRGGSTYYADSVKGRFTISRDNAKNTVYLQMNSLKPEDTALYYCAAGYPSWYYGYPYDSWGQGTQVTVSS,low polyreactivity
11,QVQLVESGGGLVQAGGSLRLSCAASGSIFGEIAMGWYRQAPGKERELVAAISSGVSTNYADSVKGRFTISRDNAKNTVYLQMNSLKPEDTAVYYCAVDSLPNSPYDYWGHGTQVTVSS,low polyreactivity
12,QVQLVESGGGLVQAGGSLRLSCAASGSIFGENAMGRYRQAPGKERELVAAITSGGSTDYADSVKGRFTISRDNAKNTVYLQMNSLKPEDTAVYYCAASGRVGPGYWYDSWGQGTQVTVSS,low polyreactivity
13,QVQLVESGGGLVQAGGSLRLSCAASGSIFGENAMGWYRQAPGKERELVASITESGVTTYYADSVKGRFTISRDNAKNTVYLQMNSLKPEDTAVYYFWGQGTQVTVSS,low polyreactivity
14,QVQLVESGGGLVQAGGSLRLSCAASGSIFGEYTMGWYRPAPGKERELVAAIRSGGDTYYADSVKGRFTISRDNAKNTVYLQMNSLKPEDTAVYYCNAYWVRHYIMDYWGQGTQVTVSS,low polyreactivity
15,QVQLVESGGGLVQAGGSLRLSCAASGSIFGFYAMGWYIQAPGKERELVAAISDSGDSTYYADSVKGRFTISRDNAKNTVYLQMNSLKPEDTAVYYCATDGRSNYYWGDYWGQGTHVTVSS,low polyreactivity
16,QVQLVESGGGLVQAGGSLRLSCAASGSIFGFYAMGWYRQAPGKERELVAAITSGDSTHYADSVKGRFTISRDNAKNTVYLQMNSLKPEDTAVYYCAASAPYRYYRSAYYYWGQGTQVTVSS,low polyreactivity
